Assay: soluble fraction after stress (log2 fold change); higher = more stays soluble; pooled small domains, quantitative proteomics
Conditions: stress: pH 4
In short: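 Custom libraries of small protein domains were pooled and measured with high-throughput quantitative proteomics after pH 4 stress. The read-out is the fold change in the amount of each domain that stays soluble after the acid stress, taken as a measure of aggregation propensity. Fold changes are on a log2 scale, and higher values mean more of the domain stayed soluble.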

Row | Sequence | soluble fraction (log2)
1 | HMKKYDIKEAQEIAEINRIPGLVTTSHGRRVYFDPKIMQYVSEEQIVKKYGQKTVKMLDQWYVSNILNK | 0.419
2 | HMKKYLIIDAANEKIIFKIIDNNKTYTNDYENSRKNFDRFAVLLFNFLNKNMISFDTIDKAL | -0.19
3 | HMKLARGEFEIMAKFIKEISGISLEQNKTYLIESRLSDLAESEGVKTFSDFFFKAKFNKILKEKIIDAI | -0.957
4 | HMKLHFTINGVHYTWYKQFIRGIQIRELGNIPREDELYLDLPDGWKDDFIEDDEIVDLARPGVEHFISRAK | 0.321
5 | HMKLIIVPNLVGQSRRSVEISLQQIGLRIDTVYTEFNPDYPKGTVAWQFPKSGDHIKKGMGLQITVSQG | 0.22
6 | HMKLINEDLNNEIVFEENKVNLLVIENKKKFVQFIQEIIKQINGDEGKFSLFDINTELKIHDKIDII | -0.0802
7 | HMKLIPLTDMRGQLRSGAPLPWGVRDAQGNLLLGKGHVIASDDMLEALLARGMFVDAEEAKAARG | 0.105
8 | HMKLISVAVMRASDAAEIAGGTDSKTLMYRAGLGLFQSWDWHGKIDIVTGSGNNAGDGYVLALLL | -0.548
9 | HMKLNKRQYAYQVIRSRILDGTYVPGQRIIIDQIAKEVNSSHIPVREAIHQLESEQLIDYEPNIGAIVKG | 0.181
10 | HMKLSALRDKIKEHLLRQIQNGELQVGKTINLAALSRVTGISVTPIREALTQLEQAQVIQAVPNRGFVVA | 0.184
11 | HMKLSIGGTIEKLRRNKGLSHQQLANALGVTPDTVEKWEINAAYPDITLLSPIARLLGTTLDALLMF | -0.828
12 | HMKLSKLTKPELDEIFRNANFTEEEEKVFWLLARGKSLEQISAKTFLPIATVNRRVKSIKDKIG | 0.34
13 | HMKLTKPKLIQLIHIAKSKLNMDELSYRVLLDNLTGKTSTTKMTVGELLKVYESMKDKGFKPQV | 0.104
14 | HMKLTTRQTEIINIVKAEQPISGEKIAQNLGLSRATLRNDLSILTMTGLLDAKPKVGYFYTGQ | 0.0805
15 | HMKLVESALSILEEAVDRDFHGNLGDAARYFDIPYQTIYSWLKSRKRVPSLRALEPVLEKLGVSFTT | -0.479
16 | HMKLVTIPNVIGKTKEDAMKTLKDLGVTVTVETKESEKDDGTVIAQSKAEGTKLTAGENVTITVSKKKK | -0.487

Row | Sequence | soluble fraction (log2)
17 | HMKMATITKRTNPSGAVVYRAQVRVKREGYPPYSESRTFSKKSLATEWAKRREFEIETNPDLLFN | 0.0738
18 | HMKMLEINDNDSVGLKNLKTQYNHNQKVIENFQLEINKVINDGELPDKYLLDGMEKYQKLNMQIMSTIEKQ | 0.221
19 | HMKMPNGYGSVYKLSGNRRKPWAARVTDGWVNDTKTKKSKQKYKFIGFYETRKEALLALADYNANP | 0.22
20 | HMKMSLKENLLELLQKSSGEFLSGERAAETLGVSRTAVWKAVTSLKNEGYNIESVTNRGYRFS | 0.395
21 | HMKNANGYGSITKLKGNRRKPYMVRITVGRDENGFPIRKVLGYYSSKANAVAALSDYNREPYDI | -0.281
22 | HMKNENSLLVSRLAEEKIINRAKLVLMEYLKLSEPQAHRYIEKQAMDLQISRAEVAARVLETYE | 0.101
23 | HMKNEVENLSYMINRIIEYRDLNNLSNKNLANKIGISEALLSYILNGRRKLSKEIQRKIALFLLND | -0.337
24 | HMKNFAPVWGEEGAEFGKEVDTGFRLRIVEKEKDVNDLFEVIQKHTIQSQWKPGSTGTESIYKRI | -1.35
25 | HMKNHIEERRKARGMTQQQLASELGVSRQTIISLENGKYNPSILLAHSIARLFGERIEDIFILR | -0.354
26 | HMKNINTNIGKNLKRIRKLRGLTIDALATSSGVSKSMISEIERGIRNPSITIIWSLANALKTPLNYFLKE | ≥ 0.43
27 | HMKNKFYEEFSDYIFKHTGIHYAEANYYQLDARINKLMKFLETSDENDVLKAIQGGAVKDQRVHQMIVDLA | -1.27
28 | HMKNKRERLGIISEILRMQVIGSQEELLDILRAKGYDVTQATLSRDLKVLKVAKTPLSNGAYKYVLPPQ | ≥ 0.43
29 | HMKNLSQAEFMYLFKILAFGSTDPDNHPEMAATGMEIAKMLQGLLLSGNVLADILRKNQNVQFWL | -0.0785
30 | HMKNNITFSEFLHEVDNGRVIKVNIQGNNITGILADGKSFNTYTPNDPSLIEKLTSKGVSISATPI | 0.127
31 | HMKNNLKGSPIIIAGGYGVGSKENFNLLFDLAKVLNAEVGASRAAVDAGFVEHDRQIGQTGVTVRP | -0.0469

From the domain aggregation screens of Martell et al. (2025)
